The numbers were not newly measured in publication PMC6451094, which cites them from elsewhere.

A word on the Kd: it is the equilibrium constant for the complex coming apart.

The target in this data set is TBP (Saccharomyces cerevisiae) (UniProt P13393).
Chain of UniProt P13393 (P13393 2-240): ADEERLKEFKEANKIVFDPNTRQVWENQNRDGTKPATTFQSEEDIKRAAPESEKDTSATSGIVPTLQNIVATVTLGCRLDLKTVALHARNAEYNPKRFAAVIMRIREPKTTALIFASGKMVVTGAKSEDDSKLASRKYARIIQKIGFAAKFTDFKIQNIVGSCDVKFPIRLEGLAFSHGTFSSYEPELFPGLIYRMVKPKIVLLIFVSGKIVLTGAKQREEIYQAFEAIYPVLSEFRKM

Turning to Mot1 (from UniProt P32333), the Kd is 1.5 nM.
